Literature values, collected in US9550786B2, “4-fluoropiperidine orexin receptor antagonists” (Merck Sharp & Dohme Corp., priority 2013, dated 2017).
Ends that are not written are not given here.

Tests used:
OX1R = target: T1, OX1R (Homo sapiens, UniProt O43613)
T1 sequence (O43613 1-425): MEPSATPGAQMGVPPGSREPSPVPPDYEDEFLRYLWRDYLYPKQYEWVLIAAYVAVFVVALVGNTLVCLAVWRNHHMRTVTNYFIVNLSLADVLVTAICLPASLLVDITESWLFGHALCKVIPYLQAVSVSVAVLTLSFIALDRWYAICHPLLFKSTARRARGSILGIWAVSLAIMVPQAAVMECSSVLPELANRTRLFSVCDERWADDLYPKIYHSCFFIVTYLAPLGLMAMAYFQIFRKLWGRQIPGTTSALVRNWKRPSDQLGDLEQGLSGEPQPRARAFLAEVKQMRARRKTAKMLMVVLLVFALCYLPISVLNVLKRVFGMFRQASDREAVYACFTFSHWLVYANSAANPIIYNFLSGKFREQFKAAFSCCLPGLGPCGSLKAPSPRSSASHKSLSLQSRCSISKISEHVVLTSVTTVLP

OX2R = target: T2, OX2R (Homo sapiens, UniProt O43614)
T2 sequence (O43614 1-444): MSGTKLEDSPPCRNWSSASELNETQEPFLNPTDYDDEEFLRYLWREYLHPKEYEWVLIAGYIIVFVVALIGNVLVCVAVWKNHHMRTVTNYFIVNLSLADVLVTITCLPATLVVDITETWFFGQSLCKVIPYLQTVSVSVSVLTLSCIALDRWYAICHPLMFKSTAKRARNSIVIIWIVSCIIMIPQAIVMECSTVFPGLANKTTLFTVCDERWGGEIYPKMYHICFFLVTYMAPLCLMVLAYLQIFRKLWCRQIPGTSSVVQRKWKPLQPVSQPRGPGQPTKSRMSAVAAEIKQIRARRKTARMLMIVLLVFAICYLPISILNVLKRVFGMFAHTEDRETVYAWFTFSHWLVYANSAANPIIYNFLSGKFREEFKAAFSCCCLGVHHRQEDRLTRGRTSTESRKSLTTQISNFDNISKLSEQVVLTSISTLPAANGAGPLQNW

Substance	binding affinity toward OX1R (OX1R) [nM]	binding affinity toward OX2R (OX2R) [nM]
orexin B [OX-B]	420	36
orexin A (QPLPDCCRQKTCSCRLYELLHGAGNHAAGILTL; not fully specified (residue 1, C-terminus, bridges); cysteine pairing not given here; UniProt O43612 34-66, looked up) [OX-A]	20	–
